Data on three molecules can be found in patent US20240301071A1 (Alector, published 2024).

The EC50 is the midpoint of the concentration-response curve. A lower EC50 goes with an effect from little substance. One may read the Kd as the equilibrium constant for the complex coming apart. Higher therefore signals lower affinity. The term koff denotes the first-order rate constant of dissociation. What is called kon is the second-order rate constant of association. By IC50 is commonly meant the concentration that inhibits the measured activity by half.

For assay [1], the target named is T1, CynoSIRPA (NP_001271679.1) (cynomolgus, UniProt A0A2K5VYQ9 31-507).
T1 sequence: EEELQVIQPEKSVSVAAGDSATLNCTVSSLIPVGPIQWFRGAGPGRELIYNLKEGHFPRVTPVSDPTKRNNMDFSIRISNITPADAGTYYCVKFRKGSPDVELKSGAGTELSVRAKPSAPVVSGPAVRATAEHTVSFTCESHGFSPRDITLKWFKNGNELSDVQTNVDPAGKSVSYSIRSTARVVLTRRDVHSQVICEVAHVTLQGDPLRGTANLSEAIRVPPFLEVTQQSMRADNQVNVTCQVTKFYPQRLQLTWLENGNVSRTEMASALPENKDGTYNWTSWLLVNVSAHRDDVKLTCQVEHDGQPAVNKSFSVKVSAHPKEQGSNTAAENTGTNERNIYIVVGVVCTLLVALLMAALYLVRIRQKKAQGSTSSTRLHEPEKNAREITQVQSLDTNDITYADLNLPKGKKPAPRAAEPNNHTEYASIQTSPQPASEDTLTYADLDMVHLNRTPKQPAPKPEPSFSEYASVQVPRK
The experiment in a line: ELISA, plate coated with SIRP protein. The method, then: (§1) In an ELISA assay, 96-well Immulon HBX plates were coated with His- or Fc-tagged SIRPA of a given species, as indicated, at 1 μg/mL in PBS overnight at 4C. Plates were blocked in 5% (w/v) bovine serum albumin in PBS for 1 hour, after which they were washed 3 times with PBS/0.05% Tween 20 (PBS/T). Anti-SIRPA antibodies were added to the plate in a dilution series and were incubated at room temperature for 2 hours, after which the unbound antibody was removed by washing with PBS/T. Horseradish peroxidase-conjugated anti-mouse IgG or anti-human kappa light chain (Jackson Immunoresearch) was then added to the wells and incubated for 30 minutes. Unbound antibody was removed by washing with PBS/T, after which bound antibody was detected using tetramethylbenzidine (TMB). The reaction was stopped with 2N H₂SO₄, after which the plates were read at A450.
Background: ELISA stands for enzyme-linked immunosorbent assay.

In assay [2] the target is T2, histidine-tagged human SIRPA v1 (Novoprotein) (human, UniProt P78324 31-370, limits assumed).
T2 construct: bought, soluble; also called huSIRPA; soluble huSIRPA; not shown: histidine tag
T2 sequence (P78324 31-370 limits assumed): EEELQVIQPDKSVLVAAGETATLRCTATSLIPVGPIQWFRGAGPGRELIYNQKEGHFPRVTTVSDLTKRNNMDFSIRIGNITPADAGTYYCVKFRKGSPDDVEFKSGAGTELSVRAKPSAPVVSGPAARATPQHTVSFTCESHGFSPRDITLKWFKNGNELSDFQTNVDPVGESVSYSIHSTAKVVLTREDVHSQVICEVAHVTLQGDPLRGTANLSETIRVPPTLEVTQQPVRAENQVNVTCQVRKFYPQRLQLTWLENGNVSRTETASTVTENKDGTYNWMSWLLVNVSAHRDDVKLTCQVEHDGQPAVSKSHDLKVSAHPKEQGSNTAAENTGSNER
The experiment in a line: BLI (Octet). The procedure:
(§2) Initial characterization of affinity matured anti-SIRPA antibodies disclosed herein comprised acquiring antigen affinity measurements using bio-layer interferometry (BLI) on a Pall ForteBio Octet RED96 instrument. Immobilized anti-mouse IgG Fc or anti-human IgG Fc antibodies captured murine anti-SIRPA 3F79 antibody and humanized anti-SIRPA 3F79 antibody on biosensors, respectively. Single cycle kinetics were performed with 25 nM huSIRPA [which variant?] or 50 nM huSIRPB 1 flowed over captured antibody 3F79 to record traces. Data analysis was performed using ForteBio Data Analysis Software, version 9.0. Standard kinetic buffer (PBS, 0.100 BSA, 0.02% Tween-20, pH 7.2) was used for the assay and for preparing reagents. […] 50 nM of histidine-tagged human SIRPA vi or human SIRPB1 (Novoprotein, Summit, NJ, USA) were then bound to the captured anti-SIRPA antibody coated surface (200 s association time, 900 s dissociation time). […] Single-curve kinetic analysis was performed using a 1:1 interaction model to extract association and dissociation rate constants (ka and kd, respectively) for each antibody. Affinity constants (KD) were calculated from the ratio kd/ka.
(Biolayer interferometry detects binding as a change in optical thickness at a sensor tip.)

Assay [3] deals with T3, human SIRPA on human macrophages (primary monocyte-derived macrophages; U937 line) (human, UniProt P78324 31-504). The experiment in a line: cell-based or functional assay.
T3 sequence (P78324 31-370): as the sequence (P78324 31-370 limits assumed) above
The target in assay [4] is T3, human SIRPA on human macrophages …. The experiment in a line: cell-based or functional assay. This is another data set of the same source.
Assay [5] concerns the target T4, Fc-tagged marmoset SIRPA (accession no. JAB51896) (marmoset, UniProt U3F8F0 31-373).
T4 sequence: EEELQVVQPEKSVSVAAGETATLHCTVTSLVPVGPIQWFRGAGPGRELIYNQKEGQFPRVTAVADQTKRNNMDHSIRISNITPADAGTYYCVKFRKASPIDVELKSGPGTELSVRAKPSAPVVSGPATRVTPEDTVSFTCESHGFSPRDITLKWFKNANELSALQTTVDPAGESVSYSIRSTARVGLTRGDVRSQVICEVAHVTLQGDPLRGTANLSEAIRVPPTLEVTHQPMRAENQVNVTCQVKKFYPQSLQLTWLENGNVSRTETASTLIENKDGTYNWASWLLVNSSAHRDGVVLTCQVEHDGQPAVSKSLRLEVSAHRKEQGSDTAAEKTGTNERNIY
Put plainly: ELISA, plate coated with Fc-tagged SIRPA. The procedure:
as §1

Assay [6] has as its target T5, Fc-tagged dog SIRPA (accession no. XP005634938) (dog, UniProt A0A8I3P880).
T5 sequence: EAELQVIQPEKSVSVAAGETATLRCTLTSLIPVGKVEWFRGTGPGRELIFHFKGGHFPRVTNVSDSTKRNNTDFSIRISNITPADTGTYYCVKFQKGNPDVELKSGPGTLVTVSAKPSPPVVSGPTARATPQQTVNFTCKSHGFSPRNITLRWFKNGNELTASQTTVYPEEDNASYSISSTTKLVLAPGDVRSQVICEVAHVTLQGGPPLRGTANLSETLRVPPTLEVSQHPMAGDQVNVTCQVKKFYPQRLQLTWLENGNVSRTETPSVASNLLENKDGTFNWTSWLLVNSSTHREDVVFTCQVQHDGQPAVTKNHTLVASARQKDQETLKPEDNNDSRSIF
The experiment in a line: ELISA, plate coated with Fc-tagged SIRPA. The procedure:
as §1

Assay [7] concerns the target T6, huSIRPA v.2 NP542970.1 (human, UniProt P78324 31-373, limits assumed).
T6 construct: see m48; also called human SIRPA v2; human SIRPA-Fc (v2)
Put plainly: ELISA, plate coated with tagged SIRPA at 1 ug/mL. The method, then: as §1

The target of assay [8] is T7, cynoSIRPA XPO15313153.1 (cynomolgus, UniProt A0A2K5VYQ9).
T7 construct: not tied one by one in the text; also called cynomolgus SIRPA; not shown: Fc or His tag
T7 sequence: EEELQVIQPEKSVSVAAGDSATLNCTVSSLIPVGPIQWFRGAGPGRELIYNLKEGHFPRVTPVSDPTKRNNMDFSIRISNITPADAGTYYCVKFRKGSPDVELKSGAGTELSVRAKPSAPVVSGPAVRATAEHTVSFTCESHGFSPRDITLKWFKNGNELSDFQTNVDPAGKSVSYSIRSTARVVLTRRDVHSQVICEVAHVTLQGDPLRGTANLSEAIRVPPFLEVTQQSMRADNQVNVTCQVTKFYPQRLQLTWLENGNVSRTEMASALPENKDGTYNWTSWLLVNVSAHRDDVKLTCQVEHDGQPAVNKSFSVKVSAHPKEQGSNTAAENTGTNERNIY
Put plainly: ELISA, plate coated with tagged SIRPA at 1 ug/mL. The procedure:
as §1

For assay [9], the target named is T8, rat SIRPA (rat, UniProt P97710 32-373, limits assumed).
T8 sequence (looked up): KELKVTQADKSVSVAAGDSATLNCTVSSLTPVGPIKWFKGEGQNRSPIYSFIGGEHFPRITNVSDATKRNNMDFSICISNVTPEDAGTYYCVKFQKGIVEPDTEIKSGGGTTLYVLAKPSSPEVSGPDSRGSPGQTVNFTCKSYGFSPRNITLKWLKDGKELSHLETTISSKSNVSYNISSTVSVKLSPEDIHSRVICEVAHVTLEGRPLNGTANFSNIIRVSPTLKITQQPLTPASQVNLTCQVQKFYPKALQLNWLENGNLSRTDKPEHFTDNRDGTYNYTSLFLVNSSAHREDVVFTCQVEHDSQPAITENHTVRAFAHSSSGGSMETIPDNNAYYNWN
The experiment in a line: ELISA, plate coated with tagged SIRPA at 1 ug/mL. The method, then: as §1

Assay [10] concerns the target T9, human SIRPA v1 on BWZ cells (BWZ-huSIRPA) (human, UniProt P78324 31-504).
T9 construct: also called BWZ cells overexpressing human SIRPA; BWZ-huSIRPA v1 cells
Put plainly: flow cytometry titration on BWZ-huSIRPA cells, 4 C. The procedure:
After addition of fluorescently labeled secondary antibody and brief washing steps, MFI values as a function of titrated antibody concentration was recorded via FACS analysis. […] Receptor bound antibodies were detected by staining cells with anti-human IgG PE secondary antibody. Curves were fit using nonlinear regression analysis with Graphpad Prism 6 software.
On the technique in general: Flow cytometry measures light scatter and fluorescence of single cells or particles in a stream.

Assay [11] deals with T2, histidine-tagged human SIRPA v1 …. The experiment in a line: BLI (Octet), antibody on anti-human IgG Fc sensor, His-huSIRPA in solution, single-curve 1:1 fit. The procedure: as §2
Assay [12] concerns the target T9, human SIRPA v1 on BWZ cells …. The experiment in a line: flow cytometry titration on BWZ cells overexpressing huSIRPA, 4 C. The method, then:
Receptor bound antibodies were detected by staining cells with anti-mouse IgG Fc APC or anti-human IgG PE secondary antibody. Serial dilutions of the monoclonal antibodies were added to 10⁵ BWZ cells overexpressing huSIRPA (BWZ-huSIRPA) and allowed to achieve binding equilibrium at 4° C. After addition of fluorescently labeled secondary antibody and brief washing steps, mean fluorescent intensity (MFI) values as a function of titrated antibody concentration was recorded via FACS analysis. Curves were fit using nonlinear regression analysis with Graphpad Prism 6 software.

Assay [13] has the same target. Put plainly: flow cytometry competition on BWZ-huSIRPA v1 cells, competitor: fluorophore-labelled reference m3F9. An excerpt: IC50 values provide another comparison of relative affinity.
Assay [14] concerns the target T10, histidine-tagged human SIRPA (Sino Biological) (human, UniProt P78324 31-370).
T10 construct: bought, soluble; also called histidine-tagged huSIRPA isoform 1; soluble SIRPA antigen; not shown: histidine tag
Put plainly: BLI (Octet RED96), antibody captured on anti-mouse IgG Fc sensor, His-tagged SIRPA in solution, 1:1 model. The procedure:
Affinity measurements for the anti-SIRPA antibodies were performed as follows. Bio-layer interferometry (BLI) data were collected on a Pall ForteBio Octet RED96 instrument. Data analysis was performed using ForteBio Data Analysis Software, version 9.0. Standard kinetic buffer (PBS, 0.100 BSA, 0.02% Tween-20, pH 7.2) was used for the assay and for preparing reagents. […] Varying concentrations (0-200 nM) of histidine-tagged human SIRPA (Sino Biological, Beijing, China) were then bound to the captured anti-SIRPA surface (300 s association time, 600 s dissociation time). The resulting BLI signal was obtained as the difference in response from the reference (2.5 μg/mL IgG+0 nM SIRPA) sensor. […] Multi-concentration kinetic analysis was performed using a 1:1 interaction model to extract association and dissociation rate constants (ka and kd, respectively) for each antibody. Binding affinity constants (KD) were calculated from the ratio kd/ka.
Best-fit traces from the resulting sensorgrams were analyzed to calculate association rate, dissociation rate, and affinity values.

T10 sequence (P78324 31-370 limits assumed): as the sequence (P78324 31-370 limits assumed) above
T9 sequence (P78324 31-504): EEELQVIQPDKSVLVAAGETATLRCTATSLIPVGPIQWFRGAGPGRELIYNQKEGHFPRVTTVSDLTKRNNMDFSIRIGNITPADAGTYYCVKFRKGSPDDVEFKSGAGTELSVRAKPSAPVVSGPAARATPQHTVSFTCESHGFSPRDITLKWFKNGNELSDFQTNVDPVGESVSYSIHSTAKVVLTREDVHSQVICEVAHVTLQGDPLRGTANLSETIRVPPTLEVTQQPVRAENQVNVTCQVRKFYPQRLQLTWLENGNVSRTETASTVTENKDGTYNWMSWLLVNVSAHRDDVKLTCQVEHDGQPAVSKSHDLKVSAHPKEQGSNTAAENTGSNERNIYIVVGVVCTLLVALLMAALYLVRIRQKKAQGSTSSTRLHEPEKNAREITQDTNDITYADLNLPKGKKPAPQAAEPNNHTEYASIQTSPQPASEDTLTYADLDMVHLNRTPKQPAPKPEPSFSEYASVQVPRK
T6 sequence (P78324 31-373 limits assumed): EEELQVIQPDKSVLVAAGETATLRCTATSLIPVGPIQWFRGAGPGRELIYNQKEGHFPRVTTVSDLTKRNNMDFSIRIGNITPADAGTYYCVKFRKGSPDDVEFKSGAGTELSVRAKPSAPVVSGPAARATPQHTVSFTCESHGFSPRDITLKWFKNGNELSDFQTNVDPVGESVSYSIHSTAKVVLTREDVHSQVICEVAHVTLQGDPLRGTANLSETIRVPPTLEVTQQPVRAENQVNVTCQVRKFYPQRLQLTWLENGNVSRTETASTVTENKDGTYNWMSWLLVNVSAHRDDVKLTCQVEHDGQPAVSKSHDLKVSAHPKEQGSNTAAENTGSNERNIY

B1: anti-SIRPA antibody 9C2 (antibody, V domains shown)
VH: EFQLQQSGAELVKPGASVKISCKASGYSLTGYNMNWVKQSRGKSLEWIGNINPHYGSSTYNQNFKDKATLTVDKSSSAAYMQFNSLTSEDSAVYYCAREGYDGVFDYWGQGTTLTVSS
VL: QIVLSQSPAILSASPGEKVTMTCRASSSVSYMHWYQQKPGSSPKPWIYVTSNLASGVPTRFSGSGSGTSYSLTISRVEAEDAATYYCQQWSSNPRTFGGGTKLEIK
notes: described in PCT/US2017/65366; also called mAb 9C2
B1: in assay [1], the EC50 is 7.44 nM.

B2: 3F9-14 (antibody)
heavy: not shown
light: DIQLTQSPSSLSASVGDRVTITCRASKSVSSGGYSYMHWYQQKPGKAPKLLIYLASNLESGVPSRFSGSGSGTDFTLTISSVQPEDFATYYCQHNRELPVTFGQGTKLEIKRTVAAPSVFIFPPSDEQLKSGTASVVCLLNNFYPREAKVQWKVDNALQSGNSQESVTEQDSKDSTYSLSSTLTLSKADYEKHKVYACEVTHQGLSSPVTKSFNRGEC
notes: also called mAb 3F9-14; hu3F9-14
B2: the “fold increase in affinity relative to parental h3F9” value in assay [2] was around 10 fold. Moreover, in assay [3], the “SIRPA IC50 (nM), downregulation on U937 cells” value was 1.17 nM and the “SIRPA Max % DR, U937 cells” value turned out to be 69%. In assay [4], the “Phagocytosis, fold increase over baseline activity” value came out at 1.56 fold; the “SIRPA IC50 (nM), downregulation on human primary macrophages” value was found to be 0.0372 nM; the “SIRPA Max % DR, human primary macrophages” value came out at 89%. Moreover, in assay [5], the EC50 was 1.2 nM. The molecule further registered an EC50 in assay [6] of 0.64 nM. This molecule yielded an EC50 in assay [7] of 0.08 nM. Moreover, it took 0.879 nM to reach a half-maximal effect in assay [8] (EC50). Moreover, the binding result in assay [9] is given as “no binding”. The same molecule yielded an EC50 in assay [10] of 0.42 nM. In assay [11], binding was characterised by a dissociation constant (Kd) of 0.618 nM, the koff amounted to 0.000102 s⁻¹ and the on-rate (kon) was 165000 M⁻¹ s⁻¹.

B3: mouse anti-SIRPA antibody m3F9 (antibody, mouse IgG1, V domains shown)
VH: EVKLVESGGGLVKPGGSLKLSCAASGFTFSSYAMSWVRQTPEKRLEWVATISDYGGSYTYYPDSVKGRFTISRDNAKYTLYLQMSSLRSEDTALYYCARPPYDDYYGGFAYWGQGTLVTVSA
VL: DIVLTQSPASLAVSLGQRATISCRASKSVSSSGYSYMHWYQQKPGQPPKLLIYLASNLESGVPARFSGSGSGTDFTLNIHPVEEEDAATYYCQHNRELPCTFGGGTKLEIK
notes: hybridoma-derived murine IgG1; also called Parental m3F9 IgG1; 3F9 mIgG1
As for B3, the EC50 in [1] stood at 0.658 nM; in assay [7], 0.695 nM; in assay [8], 1.09 nM; in assay [10] it was 0.72 nM; in assay [12], 2.1 nM. In [9], the binding result is recorded as “no binding”. The molecule further came in with a half-inhibitory concentration (IC50) in assay [13] of 11.5 nM. The molecule also showed a Kd in [14] of 18 nM. Also, the koff in assay [14] stood at 0.001 s⁻¹. This molecule also showed a kon in assay [14] of 50800 M⁻¹ s⁻¹.
